Test results: patent US20230141177A1 (UNIVERSITY OF BRITISH COLUMBIA, published 2023)
Numbering of substitutions follows the chain as printed. Numbers in names are those of the source. Blank lines part the entries; values can stand above or below the binder they belong to.

Experiments:
[1] = target: T1, cyclo (CGHHQKG) (SEQ ID NO: 2)-BSA (cyclized peptide, cyclo(CGHHQKG); conjugated to BSA); assay: SPR multi-cycle kinetics, purified IgG4 vs cyclic peptide-BSA
T1 construct: also called cyclic peptide-BSA; cyclo-BSA peptide

[2] = target: T2, commercial A-beta oligomer (purchased from SynAging) (human); assay: SPR (MASS-1), antibody immobilized, commercial oligomer injected
T2 construct: also called commercial oligomer
Experimental: (§1) All surface plasmon resonance (SPR) measurements were performed using a Molecular Affinity Screening System (MASS-1) (Sierra Sensors GmbH, Hamburg, Germany), an analytical biosensor that employs high intensity laser light and high speed optical scanning to monitor binding interactions in real time. In SPR direct binding assays, antibodies are covalently immobilized on individual flow cells of a High Amine Capacity (HAC) sensorchip (Sierra Sensors GmbH, Hamburg, Germany) and ligands flowed over the surface (BSA-conjugated peptides, A-beta42 Monomer and A-beta42 Oligomer). Each sample was diluted and injected in duplicate over the immobilized peptide and BSA reference surfaces, followed by injection of running buffer only for the dissociation phase. After every analytical cycle, the sensor chip surfaces were regenerated. Sensorgrams were double-referenced by subtracting out binding from the BSA reference surfaces and blank running buffer injections, and binding response report points collected in the dissociation phase.

[3] = target: T3, linear (CGHHQKG) (SEQ ID NO: 2) peptide-BSA (linear (non-cyclized) peptide; conjugated to BSA); assay: SPR multi-cycle kinetics, purified IgG4 vs linear peptide-BSA
T3 construct: also called linear peptide-BSA; linear-BSA peptide

[4] = target: T4, A-beta42 Oligomer (oligomer prep, made in F12 medium) (human); assay: SPR (MASS-1), antibody immobilized, A-beta42 oligomer injected
T4 construct: also called synthetic AβO
Experimental: as §1

[5] = target: T3, linear (CGHHQKG) (SEQ ID NO: 2) …; assay: SPR single cycle kinetics; IgG4 in cell supernatant captured on Protein A chip; peptide-BSA injected at four rising concentrations, 0.025 to 0.675 nM [Cont.]
Experimental: (§2) A four-point, three-fold dilution range from 0.025 nM to 0.675 nM peptide-BSA without regeneration between each concentration was used.

[6] = target: T1, cyclo (CGHHQKG) (SEQ ID NO: 2)-BSA; assay: as above
Experimental: as §2

T4 sequence (peptide, as listed by the source): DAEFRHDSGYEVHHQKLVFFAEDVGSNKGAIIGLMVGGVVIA
T2 sequence (peptide, as listed by the source): as above
T3 sequence (P02769 25-607 limits assumed): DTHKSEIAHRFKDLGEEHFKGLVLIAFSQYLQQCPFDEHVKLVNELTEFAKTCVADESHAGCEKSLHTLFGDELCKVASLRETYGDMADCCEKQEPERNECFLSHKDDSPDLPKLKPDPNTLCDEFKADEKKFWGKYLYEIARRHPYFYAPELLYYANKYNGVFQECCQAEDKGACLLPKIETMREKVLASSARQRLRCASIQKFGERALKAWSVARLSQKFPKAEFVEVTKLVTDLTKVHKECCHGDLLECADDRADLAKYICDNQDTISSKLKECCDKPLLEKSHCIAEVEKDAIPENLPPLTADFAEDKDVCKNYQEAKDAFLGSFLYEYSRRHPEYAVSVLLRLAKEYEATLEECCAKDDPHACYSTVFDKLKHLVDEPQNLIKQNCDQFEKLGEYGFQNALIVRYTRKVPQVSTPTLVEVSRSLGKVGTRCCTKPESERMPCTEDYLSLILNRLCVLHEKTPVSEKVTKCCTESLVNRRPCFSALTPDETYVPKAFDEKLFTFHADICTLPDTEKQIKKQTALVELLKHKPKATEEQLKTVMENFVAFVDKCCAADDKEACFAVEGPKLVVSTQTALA
T1 sequence (P02769 25-607 limits assumed): as above

B1: parental antibody, PMN310 humanized antibody variant VH2/Vk5 (human IgG4 S241P / kappa) (antibody, V domains shown)
VH: QVQLVQSGAEVKKPGASVKMSCKASGYSFTSYWINWVKQRPGQGLEWIGDVHPGRGVSTYNAKFKSRATLTLDTSISTAYMELSSLRSEDTAVYYCSRSHGNTYWFFDVWGQGTTVTVSS
VL: DVLMTQSPLSLPVTLGQPASISCRSSQSIVHSNGNTYLEWYQQRPGQSPRLLIYKVSNRFSGVPDRFSGSGSGTDFTLKISRVEAEDVGVYYCFQGSHVPFTFGQGTKLEIKR
notes: also called parental huPMN310; huPMN310
Kd [1]: 0.0274 nM | koff [1]: 0.000155 s⁻¹ | kon [1]: 5.65e+06 M⁻¹ s⁻¹ | Binding to commercial oligomer (BRU) [2]: 3 BRU | Kd [3]: 0.103 nM | koff [3]: 0.000155 s⁻¹ | kon [3]: 1.5e+06 M⁻¹ s⁻¹ | Binding to oligomer prep (BRU) [4]: 85.6 BRU

B2: Clone 4 (affinity matured VH with parental Vk, human IgG4 S241P / kappa) (antibody, V domains shown)
VH: B1 VH with S97A, S99V, H100S, G101P, N102T, T103G
VL: B1 VL
Kd [1]: 0.0235 nM | koff [1]: 6.9e-05 s⁻¹ | kon [1]: 2.94e+06 M⁻¹ s⁻¹ | Binding to commercial oligomer (BRU) [2]: 22.6 BRU | Binding to oligomer prep (BRU) [4]: 57.3 BRU

B3: Clone 14 (affinity matured VH with parental Vk, human IgG4 S241P / kappa) (antibody, V domains shown)
VH: B1 VH with S97A, R98K, H100D, G101A, N102S, T103G
VL: B1 VL
Kd [1]: 0.0289 nM | koff [1]: 0.000152 s⁻¹ | kon [1]: 5.26e+06 M⁻¹ s⁻¹ | Binding to commercial oligomer (BRU) [2]: 22.3 BRU | Binding to oligomer prep (BRU) [4]: 30.8 BRU

Now from value to binder:

Kd [1]: 0.0647 nM | koff [1]: 0.000132 s⁻¹ | kon [1]: 2.04e+06 M⁻¹ s⁻¹ | Binding to commercial oligomer (BRU) [2]: 32.3 BRU | Kd [3]: 0.0924 nM | koff [3]: 0.000138 s⁻¹ | kon [3]: 1.49e+06 M⁻¹ s⁻¹ | Binding to oligomer prep (BRU) [4]: 223 BRU
B4: Clone 5 (affinity matured VH with parental Vk, human IgG4 S241P / kappa) (antibody, V domains shown)
VH: B1 VH with S97A, S99G, H100A, G101L, N102S, T103P
VL: B1 VL

binding result [5]: no binding | binding result [6]: no binding
B5: Clone 13 (antibody, human IgG4 S228P, kappa, V domains shown)
VH: B1 VH with S97A, H100V, N102D, F107Y
VL: B1 VL
